This is an account of results in publication PMC3992019, “Initiation of the flexirubin biosynthesis in Chitinophaga pinensis” (Microbial Biotechnology, 2014).

Substrate in the data set “purified protein”: O=C(O)/C=C/c1ccccc1
Kind of data set: purified protein. The note with it: 1 mM CoA, 1 mM ATP, 1 mM MgCl2, 50 mM Tris pH 7.5, 55°C, 0.5 μM enzyme, 50-7000 μM substrate.

Substrate in data set [1]: O=C(O)/C=C/c1ccc(O)cc1
Kind of data set: coupled pyrophosphate assay (EnzChek). Type of data set: biochemical, Chitinophaga pinensis. The note with it: 1 mM CoA, 1 mM ATP, 1 mM MgCl2, 50 mM Tris pH 7.5, 55°C, 0.5 μM enzyme, 10-750 μM substrate.

B1: FlxY (Chitinophaga pinensis DSM 2588) (protein)
chain: MYIPDIELQSTAAIRKYQETEVLRLLGYLRQFSPFYREWFAQHGIQPSTVKSLNDLWLIPPVTKEHLQQQNWDFLCVDKSRIAEYTTTSGTLGNPVIIALTQKDQERLSYNEYISFCCAGGTENDIYQLMLTLDRQFMAGMAYYNGIRKLGAGVLRVGPGVPSLQWENISRIQPTTIVAVPSFIVKLIAFAKEHNIDINASSVKSAVCIGENIRNVDFSLNVLGKKITEQWDIKLYSTYASTEMQTAFTECNAGQGGHHHPELLYIELLDDNNQPVGPNQDGEVTITTLGVEGMPLLRYKTGDICRYFQEPCSCGRHTMRLSPVIGRRKQMIKYKGTTLYPPALFDLLNDMEEVKEFVVEVFSNEIGTDEILLHLWPVAETEDIDRKIRSYLQAKLRVIPQVRYCSQADVMKMQFPEGSRKPIKFIDRR
notes: His6-tagged full-length (pCOLADuet-1, BamHI/HindIII), expressed in E. coli BL21 (DE3), HisTrap purified, tag kept; expected size 49 kDa
For B1, the figures for the Km (in “purified protein”; in data set [1]) were 868 µM and 17 µM, respectively.
